Results taken from patent US20250152663A1, “COMPOSITION FOR PREVENTION OR TREATMENT OF DRY EYE DISEASE COMPRISING HAPLN1” (HAPLNSCIENCE INC., priority 2021, published 2025).
Entries after “also recorded” stand apart in the source; their conditions may differ.

Legend:
[1] = tested on: CCL-20 secreted by human corneal epithelial cells; assay: CCL-20 ELISA under high osmotic pressure; type: cell-based; conditions: HCEC, 450 mOsM, 5, 10, 20, 50, and 100 ng/ml
Experimental: In addition, the activity of NFκB that is an important transcription factor in expression of the inflammatory factors was identified by Western blot analysis (FIG. 4B). Preparation of the experiment was performed under the same conditions of those of Cytokine array performed as described above and the ELISA was performed according to the manufacturer's instructions.

[2] = tested on: mouse dry eye model; assay: Tear volume assay (Schirmer's test strip), low-humidity+scopolamine-induced dry eye disease model; type: in vivo, C57BL/6
Experimental: Corneal fluorescein score assay and tear volume assay were respectively performed on eyeballs of mice treated with the compositions of Preparation Examples 1, 2, and 3 prepared in Example 7 above by using a low-humidity+scopolamine-induced dry eye disease (DED) model.
While the test animals were raised in a desiccating stress chamber with a relative humidity of 30% or less, scopolamine hydrobromide (S0929, Sigma-aldrich) prepared in a concentration of 2.5 mg/mL in saline (0.9% normal saline, JW Pharmaceuticals Corp.) was subcutaneously injected thereinto four times a day (QID: 09:30 AM, 12:00 PM, 15:00 PM, and 17:30 PM) for 10 days at a dose of 10 mL/kg to induce dry eye disease. The subcutaneous injection was performed at the back while moving positions to minimize damage caused by repeated administration. […]
• (1) General anesthesia of the mice was induced (10 mg/kg xylazine and 100 mg/kg ketamine, intraperitoneal injection). • (2) After 3 hours from administration of scopolamine hydrobromide in the morning (at 9:30 AM), measurement was conducted. • (3) The volume of tear was measured by using a Schirmer's test strip cut to ½ thickness. […] Then, one drop (5 μl) of physiological saline was applied to the eyeballs. • (4) A length of a wet portion of the strip was measured by a ruler. […]

[3] = tested on: human corneal epithelial cells; assay: CCK-8 cell viability under high osmotic pressure (dry eye cell model); type: cell-based; conditions: HCEC, 450 mOsM
Experimental: In most dry eye diseases, tear decreases in the aqueous layer in an eyeball due to lacrimal hyposecretion or hyperevaporation of tear. In this case, osmotic pressure increases because water decreases while concentrations of proteins, lipids, carbohydrates, etc. contained in tear are constantly maintained. Based on this principle, in cellular level studies, NaCl is added to a cell culture medium to control the osmotic pressure, establish a dry eye disease model, and evaluate efficacy of a drug. Thus, in the present embodiment, by using a case with an osmotic pressure of 314 mOsM as a normal control and a case with a relatively high osmotic pressure of 450 mOsM as a dry eye disease model, effects of HAPLN1 protein on the relief of dry eye disease in human corneal epithelial cells under the high osmotic pressure conditions were verified. This is related to cell viability of human corneal epithelial cells.
In this experiments, a cell counting kit-8 (CCK-8), which allows a sensitive colorimetric assay used to measure cell viability and cytotoxicity, was used. That is, addition of WST-8, which is a highly water-soluble tetrazolium salt, to cells […] to produce an orange-colored formazan dye in the cells. Because the amount of the dye is related to the number of viable cells, a larger amount of the dye indicates more viable cells. […]

B1: hyaluronan and proteoglycan link protein 1 (HAPLN1) (protein, listed as Homo sapiens)
chain: MKSLLLLVLISICWADHLSDNYTLDHDRAIHIQAENGPHLLVEAEQAKVFSHRGGNVTLPCKFYRDPTAFGSGIHKIRIKWTKLTSDYLKEVDVFVSMGYHKKTYGGYQGRVFLKGGSDSDASLVITDLTLEDYGRYKCEVIEGLEDDTVVVALDLQGVVFPYFPRLGRYNLNFHEAQQACLDQDAVIASFDQLYDAWRGGLDWCNAGWLSDGSVQYPITKPREPCGGQNTVPGVRNYGFWDKDKSRYDVFCFTSNFNGRFYYLIHPTKLTYDEAVQACLNDGAQIAKVGQIFAAWKILGYDRCDAGWLADGSVRYPISRPRRRCSPTEAAVRFVGFPDKKHKLYGVYCFRAYN
- expression levels of the inflammatory factor CCL20 (ELISA) [1]: relatively lower than those of the HAPLN1 protein-untreated groups
- tear volume compared with Cyclosporine A ([2]; after 11 days): increased the tear volume far more than Cyclosporine A
- tear volume ([2]; eye drop 0.5, 5, 50 μg/ml, 5 μL b.i.d., regardless of the concentration, more than Cyclosporine A): consistently increased
- cell viability, CCK-8 absorbances (450 nm) ([3]; 5 to 100 ng/ml, incubated 24 hours or 48 hours, compared with normal cell group (314 mOsM)): not less than or similar to that of a normal cell group; also recorded: increased
- cell viability (CCK-8) compared with control drug Cyclosporin A ([3]; regardless of concentration, vs 0.1 to 0.5 μM Cyclosporin A): higher than 0.1 to 0.5 μM of Cyclosporin A
